Assay results as given in patent US7465453B2, “Polypeptide fragments of CKLF1” (Peking University, priority 2004, dated 2008).

Experiments:
Type in all cases: cell-based
[1] = target: T1, CCR4 (Homo sapiens, UniProt P51679); assay: Chemotaxis assay (48-well microchemotaxis chamber) of HEK293 cells transfected with CCR4; details: for chemotaxis induced after PTX pretreatment: CCR4-transfected HEK293 cells treated with 100 ng/ml PTX at 37° C. for 30 min; for desensitization of the receptor to subsequent stimulation with TARC, C27 or C19 (chemotaxis): HEK293/CCR4, pretreatment TARC or 2 μg/ml C27 or C19, 37° C., 30 min
T1 construct: The cDNA fragments covering the open reading frames for various chemokine receptors were obtained as follows; expressed in transfected cells; host or cells: HEK293 (transient, electroporation)
T1 sequence (P51679 1-360): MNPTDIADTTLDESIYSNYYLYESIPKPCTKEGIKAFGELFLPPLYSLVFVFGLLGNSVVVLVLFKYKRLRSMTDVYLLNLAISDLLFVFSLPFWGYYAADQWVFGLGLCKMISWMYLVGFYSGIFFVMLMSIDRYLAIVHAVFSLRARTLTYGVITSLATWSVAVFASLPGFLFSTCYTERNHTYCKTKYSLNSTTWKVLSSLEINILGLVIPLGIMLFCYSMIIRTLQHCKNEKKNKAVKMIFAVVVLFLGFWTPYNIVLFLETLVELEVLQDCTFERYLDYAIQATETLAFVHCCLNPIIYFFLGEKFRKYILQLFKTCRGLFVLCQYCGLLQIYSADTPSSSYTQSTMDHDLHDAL
Description: (§1) HEK293 cells were grown in RPMI 1640 supplemented with 10% heat-inactivated FBS, penicillin (100 U/ml) and streptomycin (100 μg/ml). Every 4×10^6 HEK293 cells in 400 μl were transiently transfected by electroporation with 15 μg of the expression plasmid at 120 V, 20 ms using an electric pulse generator (Electro Square Porator ECM 830, BTX, San Diego, Calif.), and calcium mobilization assay and chemotaxis assays were performed 48 hours later.
The chemotaxis assay was performed using a 48-well microchemotaxis chamber (Neutroprobe; Cabin John, Md., U.S.A.). Chemoattractants were diluted in HEPES-buffered RPMI 1640 medium supplemented with 0.1% BSA and placed in the lower wells (28 μl/well). HEK293 cells transfected with pcDI-CCR4, -CCR5 were resuspended in the same medium at 2×10^6 cells/ml and added to the upper wells (50 μl/well), which were separated from the lower wells by a polyvinylpyrrolidone-free polycarbonate filter with 8-μm pores. The chamber was incubated for 2 hours at 37° C. in 5% CO2 and 95% air. Filters were removed from the chamber, washed, fixed, and stained with Three Step Stain Set. Cells that migrated were counted in 5 randomly selected high power fields (400×) per well. The chemotactic index (CI) was calculated from the number of cells that migrated to the control. Significant chemotaxis was defined as CI>2. In some experiments, cells were pretreated with TARC, RANTES, purified CKLF-myc protein or secreted CKLF1 peptides for 30 min. at 37° C., or 100 ng/ml PTX (ALEXIS Biochemicals Corporation) for 6 hours at 37° C. prior to subsequent stimulations.

[2] = target: T1, CCR4; assay: Calcium flux assay in CCR4-transfected HEK293 cells; details: for calcium flux: CCR4-transfected HEK293 cells, 167 nM C27 or C19, 100 nM TARC; for desensitization of transfectants to subsequent TARC treatment: CCR4 transfectants, first 167 nM peptide, then 100 nM TARC
Description: The cDNA fragments covering the open reading frames for various chemokine receptors were obtained as follows. CCR4, CCR5 and CCR6 receptors were cloned from a K562 cell cDNA library by polymerase chain reaction (PCR). The primers were designed using the sequences from the following GenBank™ submissions: CCR4 (NM_005508.2), CCR5 (NM_000579) and CCR6 (AY242126). The fragments were cloned into an expression vector pcDI (modified in our lab from pcDNA3 vector (Invitrogen), in which the part between BgI II-Kpn I was replaced by the fragment of pCl vector (Promega) digested with BgI II-Kpn I) or pEGFP-N1 vector (CLONTECH) for efficient expression in HEK293 cells. The sequences coding receptors in expression plasmids were confirmed by DNA sequencing, which is consistent with the sequence submitted in GenBank™.
as §1
HEK293 cells transfected with pcDI-CCR4 or pcDI-CCR5 were grown in specialized glass-bottom microwell dishes (MatTek Corporation, U.S.A.) and loaded with 10 μM fluo-3/AM in HEPES-buffered saline at 37° C. for 1 hour in the dark. The cells were rinsed with HEPES-buffered saline and stimulated with 167 nM secreted CKLF1 peptides and 100 nM TARC or RANTES, respectively. Fluorescence was monitored at 488 nm (excitation wavelength) and 530 nm (emission wavelength) every 5 second using a Leica TCS-NT confocal fluorescence microscope with a 40× oil immersion lens (Wetzler, Heidelberg, Germany). The measurement was completed at room temperature and each field of cells was selected at random. Images were collected at 5 second intervals for 405 seconds. The images were analyzed for relative fluorescence using Leica confocal software. The relative fluorescence was determined using Microsoft Excel. All calcium flux assays were performed in the presence of extracellular calcium (in the absence of EDTA or EGTA) in the assay buffers. Therefore, both intracellular calcium release and extracellular calcium influx were analyzed.

[3] = target: T2, CCR6 (Homo sapiens, UniProt P51684); assay: Internalization of CCR6-EGFP in transiently transfected HEK293 cells; details: HEK293 cells transfected with pCCR6-EGFP; 37° C., 2 hours
T2 construct: The cDNA fragment covering the open reading frame for CCR6 chemokine receptor was cloned into pEGFP-N1 vector (CLONTECH); expressed in transfected cells; host or cells: HEK293 (transient)
T2 sequence (P51684 1-374): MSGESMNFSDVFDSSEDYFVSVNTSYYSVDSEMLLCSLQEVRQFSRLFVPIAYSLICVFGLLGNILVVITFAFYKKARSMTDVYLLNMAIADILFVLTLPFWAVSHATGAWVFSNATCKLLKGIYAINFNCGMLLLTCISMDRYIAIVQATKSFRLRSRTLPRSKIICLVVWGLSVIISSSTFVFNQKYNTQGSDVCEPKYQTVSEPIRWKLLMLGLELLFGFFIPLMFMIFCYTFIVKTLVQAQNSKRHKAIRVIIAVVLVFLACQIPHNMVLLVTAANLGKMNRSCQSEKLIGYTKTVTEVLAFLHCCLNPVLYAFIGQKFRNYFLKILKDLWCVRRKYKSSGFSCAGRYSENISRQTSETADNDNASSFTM
Description: The cDNA fragment covering the open reading frame for CCR6 chemokine receptor was cloned into pEGFP-N1 vector (CLONTECH). pCCR6-EGFP transiently expressing HEK293 cells were cultured in glass-bottom dishes in RPMI 1640 with 10% FBS. After 16-24 hours of serum starvation, cells were treated with CKLF1 C-terminal peptides or MIP3α at 37° C. for 2 hours. Cells were washed with cold PBS and fixed with 2% paraformaldehyde in PBS. The subcellular localization of CCR6-EGFP protein was visualized using a Leica TCS-NT confocal fluorescence microscope with a 63× oil immersion lens (Wetzler, Heidelberg, Germany). The excitation and emission wavelengths were 488 and 515-540 nm, respectively.

For “ALIYRKL LFNPSGPYQKKPVHEKKEVL (ALIYRKLLFNPSGPYQKKPVHEKKEVL; listed as Homo sapiens) [C27]”, the “migration (chemotaxis) of transfected cells” value ([1]; CCR4-transfected HEK293 cells) was “could induce migration”, the “chemotaxis induced after PTX pretreatment” value [1] was “completely abolished by PTX” and the “desensitization of the receptor to subsequent stimulation with TARC, C27 or C19 (chemotaxis)” value [1] was “could desensitize the receptor”. For the same substance, the calcium flux [2] was “could induce calcium flux”, the “desensitization of transfectants to subsequent TARC treatment” value [2] was “could desensitize” and the “internalization of CCR6-EGFP” value [3] was “could induce internalization of CCR6-EGFP”.
With “FNPSGPYQKKPVHEKKEVL (listed as Homo sapiens) [C19]” the “chemotaxis induced after PTX pretreatment” value [1] was “completely abolished by PTX”, the “desensitization of the receptor to subsequent stimulation with TARC, C27 or C19 (chemotaxis)” value [1] was “could desensitize the receptor” and the calcium flux [2] was “could induce calcium flux”. The “desensitization of transfectants to subsequent TARC treatment” value [2] was “could desensitize” and the “internalization of CCR6-EGFP” value [3] was “could induce internalization of CCR6-EGFP”.
